Assay results taken from the supplement of paper PMC9170038.

Test system: MS2 coat protein
Assay: apparent KD of MS2 coat protein; designed switch direction (-1 OFF switch, 1 ON switch): -1; higher = weaker reporter binding
Procedure, shortened: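 On Illumina chips, designed RNA switches with common flanks were made by stalled E. coli RNA polymerase. Titrations with SNAP-549-labelled MS2 coat protein, doubling from 0.7 or 1.5 nM to 3 µM, were done with no input, with 200 uM small-molecule ligand, or with an oligonucleotide input. Apparent KD is the median per design over clusters, from curve fits of normalised cluster fluorescence.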

[1] = Eterna round: R95, input ligand: FMN 200 uM
[2] = Eterna round: R95, input ligand: microRNA oligo, concentration not stated
[3] = Eterna round: R95, input ligand: none
[4] = input ligand: microRNA oligo, concentration not stated

Sequence: AAAGACCAAGUGAGGAUAUUAUGGACAAUGGAACAUGAGAAGGCACAUGAGGAUCACCCAUGUGAAUAGGGACG [Eternabot (Original) Solution 22] (Eterna round: R97, puzzle: Brourd's mod of Exclusion 4)
- apparent KD of MS2 coat protein (input ligand: FMN 200 uM): 0.0335 µM
- apparent KD of MS2 coat protein (input ligand: none): 0.0194 µM

Sequence: AAGAAGAUAGGAUAUACGAGGAGAGGAGAGAAGAGGUGAGGACAUGAGGAUCACCCAUGUAGAAGGAUCAGGAA [JR_Exclu2_Sub063] (puzzle: Exclusion 2)
- apparent KD of MS2 coat protein [1]: 0.0887 µM
- apparent KD of MS2 coat protein [2]: 0.266 µM
- apparent KD of MS2 coat protein [3]: 0.176 µM

Sequence: CCAUCGAGUGUGAGGAUAUGCUGUUCCUAAGAGCAGCAGAAGGCACAUGAGGAUCACCCAUGUGGAUACGGUGG [Mat - Exclusion 4 - JL Mod - D81] (puzzle: Brourd's mod of Exclusion 4)
- apparent KD of MS2 coat protein [1]: 0.172 µM
- apparent KD of MS2 coat protein [2]: 0.0292 µM
- apparent KD of MS2 coat protein [3]: 0.0311 µM

Sequence: ACUGGAGCAGGAUAUAUAUGACGUGCUUCGGCACGAAGGUCACAUGAGGAUCACCCAUGUAGAAGGGCUCCAGU [E2/9-D1] (Eterna round: R97, puzzle: Exclusion 2)
- apparent KD of MS2 coat protein (input ligand: FMN 200 uM): 0.225 µM
- apparent KD of MS2 coat protein (input ligand: none): 0.0467 µM

Sequence: GAGGUACAUGAGGAUCACCCAUGUGAGGAUAUAGUGGAAGAUUGAGAGAGGUGGAGGACUAGAAGGCACAGUGG [JR_Exclu1_Sub039] (puzzle: Exclusion 1)
- apparent KD of MS2 coat protein [2]: 0.0481 µM

Sequence: UUGUUAUAUGUAGGAUAUGCAUGUUAUUAUUAUGCAGAAGGACAUGAGGAUCACCCAUGUGUAUUAUUAUUAUAUAUUAUAUAU [Title] (Eterna round: R96, puzzle: Exclusion NG 1)
- apparent KD of MS2 coat protein (input ligand: FMN 200 uM): 0.0212 µM
- apparent KD of MS2 coat protein [4]: 0.0141 µM
- apparent KD of MS2 coat protein (input ligand: none): 0.0201 µM

Sequence: ACAUGAGGAUCACCCAUGUAAUGAUGGGUACUAUAUUAUUCGUAGGAUAUCGUUGUUAGUUUGUUCGAGAAGGACGUUUGCCUU [JR_ExcNG3_Sub055] (Eterna round: R96, puzzle: Exclusion NG 3)
- apparent KD of MS2 coat protein [4]: 0.824 µM

Sequence: UCUGGUCGAGGAUAUACAUGAGGAUCACCCAUGUAGAUCAACCAGCGAUAGCUGGAAUGUAGAAGGCGACCAGA [E3/5-A3] (Eterna round: R97, puzzle: Exclusion 3)
- apparent KD of MS2 coat protein (input ligand: FMN 200 uM): 0.381 µM
- apparent KD of MS2 coat protein (input ligand: none): 0.0304 µM

Sequence: GGUCAGCUAGGAUAUACAUGAGGAUCACCCAUGUACUGACCCAUGCGGGAGCCUGCAUGUAGAAGGAGCAAUAU [Onzatiqula] (Eterna round: R97, puzzle: Exclusion 3)
- apparent KD of MS2 coat protein (input ligand: FMN 200 uM): 0.037 µM
- apparent KD of MS2 coat protein (input ligand: none): 0.0553 µM

Sequence: UGCCUUUGAGGAUAUACGUAGAAAUAGAUUCAUGUAAAACUACAUGAGGAUCACCCAUGUAGAAGGCAAGGGCU [Mat - Exclusion 2 - JL Mod - D48] (Eterna round: R97, puzzle: Exclusion 2)
- apparent KD of MS2 coat protein (input ligand: FMN 200 uM): 0.164 µM
- apparent KD of MS2 coat protein (input ligand: none): 0.024 µM

Sequence: CAUGUCCAACGAGGAUAUGGGAAAGGAAGUGUACCAGAAGGCGUACGGACAUGAGGAUCACCCAUGUCGCGCGGUGCGAUGUGG [MOD2 Nando EXNG 1.1] (Eterna round: R96, puzzle: Exclusion NG 1)
- apparent KD of MS2 coat protein (input ligand: FMN 200 uM): 0.112 µM
- apparent KD of MS2 coat protein [4]: 0.0391 µM
- apparent KD of MS2 coat protein (input ligand: none): 0.0989 µM

Sequence: CUACAUCGAGGAUAUGCAAACGUAAACAUGAGGAUCACCCAUGUGACGUCAUAUUACGUAGUAGAAGGCGAAAAUA [Anlein] (Eterna round: R97, puzzle: Exclusion 5)
- apparent KD of MS2 coat protein (input ligand: FMN 200 uM): 0.0202 µM
- apparent KD of MS2 coat protein (input ligand: none): 0.0158 µM

Sequence: UGUUGUCGCGCAGGAUAUGAGGAUCACCCAUAUAAGGAUAUCGAAAGAGAAGGUCUGAGGAUUACCCAGAAGGGCGGGACAACU [pwkr exNG2 2xF5 2xFMN.30] (Eterna round: R96, puzzle: Exclusion NG 2)
- apparent KD of MS2 coat protein (input ligand: FMN 200 uM): 0.309 µM
- apparent KD of MS2 coat protein [4]: 0.0438 µM
- apparent KD of MS2 coat protein (input ligand: none): 0.0701 µM

Sequence: GUCUUACAUGAGGAUCACCCAUGUGAGGAUAUGGAUUCGCUGGCCGUAGCCAGUGGAUCCAGAAGGCGCGUGAU [JL-ex1-4.20] (Eterna round: R97, puzzle: Exclusion 1)
- apparent KD of MS2 coat protein (input ligand: FMN 200 uM): 0.067 µM
- apparent KD of MS2 coat protein (input ligand: none): 0.0625 µM

Sequence: GGUGGACAUGAGGAUCACCCAUGUGAGGAUAUCGGCCGGUGCGUGGUGGCUGGCGUCUCGAGAAGGCACAUAGU [Exclusion 1 V68] (puzzle: Exclusion 1)
- apparent KD of MS2 coat protein [2]: 0.0749 µM

Sequence: AGUUGGCGAGGAUAUACAUGAGGAUCACCCAUGUGAGAGAUACUAGUGAGGUCGAUUAGUAGAAGGCGCUGACA [Mat - Exclusion 3 - Mod of JL D77] (puzzle: Exclusion 3)
- apparent KD of MS2 coat protein [2]: 0.0316 µM

Sequence: AAUGUCUGAGGAUAUCGUUUUUUGUACAUGAGGAUCACCCAUGUCCAAUUUUGUAUAUUACGAGAAGGCAGUGGAA [JR_E5_Sub089] (puzzle: Exclusion 5)
- apparent KD of MS2 coat protein [2]: 0.0146 µM

Sequence: UACCUGAGGCUUUGCUUUAGGCUUACAUGAGGAUCACCCAUGUAGGAUAUGGUAGGCUUUGCUUACCAGAAGGACAUGGUAAUU [JL ENG3 1.07] (Eterna round: R96, puzzle: Exclusion NG 3)
- apparent KD of MS2 coat protein (input ligand: FMN 200 uM): 0.0909 µM
- apparent KD of MS2 coat protein [4]: 0.0599 µM
- apparent KD of MS2 coat protein (input ligand: none): 0.0646 µM

Sequence: UAUUCGCAAGUGAGAUCCCACAUGAGGAUCACCCAUGUGCUCGUCUUAUAAGGUACUGUGACGAAAGUCACGGUACC [Sensor 3, v1 - 91 v23] (Eterna round: R97, puzzle: Sensor, turn-off variant 1)
- apparent KD of MS2 coat protein (input ligand: FMN 200 uM): 0.0324 µM
- apparent KD of MS2 coat protein (input ligand: none): 0.0361 µM

Sequence: ACAUGAGGAUCACCCAUGUGAAAACAAUGGCUGACUUUGAGACAGGAUAUAGGUGCAUAUCAAACCUAGAAGGGUCAUUACUGG [Deportation 93 - Jieux - Exclusion NG 3] (Eterna round: R96, puzzle: Exclusion NG 3)
- apparent KD of MS2 coat protein (input ligand: FMN 200 uM): 0.0435 µM
- apparent KD of MS2 coat protein [4]: 0.0316 µM
- apparent KD of MS2 coat protein (input ligand: none): 0.0382 µM

Sequence: CUUUUGUGAGGAUAUUAGUAGUUAAUAAAUAAAAUUACUACUGAGAAGGCACAUGAGGAUCACCCAUGUUCCUC [salish99_ex4_r3_051] (puzzle: Exclusion 4)
- apparent KD of MS2 coat protein [2]: 0.0328 µM

Sequence: AAGAAGAUAGGAUAUACGAGGAGAGGAGAGAAGAGGUGAGGACAUGAGGAUCACCCAUGUAGAAGGAUCAGGAA [JR_Exclu2_Sub063] (Eterna round: R96, puzzle: Exclusion 2)
- apparent KD of MS2 coat protein (input ligand: FMN 200 uM): 0.169 µM
- apparent KD of MS2 coat protein [4]: 0.091 µM
- apparent KD of MS2 coat protein (input ligand: none): 0.109 µM

Sequence: CUAUUACGAGGAUAUGAUUUAAGUAACAUGAGGAUCACCCAUGUUUUUCCGUUGUUAUGUUCAGAAGGCGUAUUAU [JR_E5_Sub023] (puzzle: Exclusion 5)
- apparent KD of MS2 coat protein [1]: 0.0861 µM
- apparent KD of MS2 coat protein [2]: 0.0356 µM
- apparent KD of MS2 coat protein [3]: 0.0388 µM

Sequence: AGAGUGCUGCGAGGAUAUACAUGAGGAUCACCCAUGUAAACCUGUGAGGCAAAGCCUCACAGGAUGUAGAAGGCGCAGUACUCA [Mat - Exclusion NG 2 - Mod of JL - D40] (Eterna round: R96, puzzle: Exclusion NG 2)
- apparent KD of MS2 coat protein (input ligand: FMN 200 uM): 0.02 µM
- apparent KD of MS2 coat protein [4]: 0.00882 µM
- apparent KD of MS2 coat protein (input ligand: none): 0.0195 µM

Sequence: GUAGAGUAAGGAUAUCAUGAAUAGGAUAGAAUGGUUAGAAAUGAGAAGGUACAUGAGGAUCACCCAUGUAAUGU [Excluse me!!!! 12 - Jieux - Exclusion 4] (puzzle: Exclusion 4)
- apparent KD of MS2 coat protein [1]: 0.0205 µM
- apparent KD of MS2 coat protein [2]: 0.0216 µM
- apparent KD of MS2 coat protein [3]: 0.0171 µM

Sequence: CGUGGACAUGAGGAUCACCCAUGUGAGGAUAUCGGCUGGUACGUGUUGGCUGGCAUCUCGAGAAGGCACAUAGU [Exclusion 1 V62] (puzzle: Exclusion 1)
- apparent KD of MS2 coat protein [2]: 0.0408 µM
